The source of these data is patent US20130273073A1 (University of California, published 2013).

The target in one test is T1, murine ROR1 (murine, UniProt Q9Z139 30-406, limits assumed).
T1 construct: also called mouse ROR1
Nature of the test: screen for binding to human and murine ROR1.

Test [1] addresses T2, human ROR1 (human, UniProt Q01973 30-406).
T2 construct: The immunogen was the extracellular portion (AA 1-406); also called hROR1; ROR1 protein
Nature of the test: standard techniques, method not stated (FIG. 16A).

Test [2] addresses human ROR1 with the glutamic acid at position 138 replaced with the murine lysine (human, UniProt Q01973 30-406, limits assumed). Kind of test: murinized residue screen, western blot. The method, then: (§1) As a second level screen, a series of deletion constructs were generated to determine the actual extracellular ROR1 domain to which the mAbs bind. […] As a final step, the actual amino acids targeted by these antibodies were determined. For this final screen, murinized human amino acids in the sub-domain fragments were generated to determine critical residues required for mAb binding (FIG. 15).

In test [3] the target is T2, human ROR1. Kind of test: binding site mapping. The protocol: as §1
The target of test [4] is T2, human ROR1. Nature of the test: cross blocking, competitor D10.
Test [5] deals with T2, human ROR1. Nature of the test: standard techniques, method not stated (FIG. 16B).
In test [6] the target is human ROR1 with the isoleucine at position 111 replaced with the murine asparagine (human, UniProt Q01973 30-406, limits assumed). Nature of the test: murinized residue screen, western blot. The protocol: as §1
Sequence of human ROR1 with the isoleucine at position 111 replaced with the murine asparagine (Q01973 30-406 I111N limits assumed): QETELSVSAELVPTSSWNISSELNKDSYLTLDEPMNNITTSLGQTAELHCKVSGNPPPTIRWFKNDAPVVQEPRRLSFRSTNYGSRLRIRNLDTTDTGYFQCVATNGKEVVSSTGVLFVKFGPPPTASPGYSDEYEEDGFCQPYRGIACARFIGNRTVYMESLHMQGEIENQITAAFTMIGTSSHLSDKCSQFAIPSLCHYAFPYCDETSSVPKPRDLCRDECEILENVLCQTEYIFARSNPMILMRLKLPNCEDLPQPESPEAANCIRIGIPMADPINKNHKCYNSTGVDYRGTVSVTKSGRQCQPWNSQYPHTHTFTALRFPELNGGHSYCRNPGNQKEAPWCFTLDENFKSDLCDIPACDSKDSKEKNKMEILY

Changes are numbered by the printed parent chain.

T2 sequence (Q01973 30-406 limits assumed): as the sequence (Q01973 30-406 I111N limits assumed) above, with N82I counted along it
T1 sequence (Q9Z139 30-406 limits assumed): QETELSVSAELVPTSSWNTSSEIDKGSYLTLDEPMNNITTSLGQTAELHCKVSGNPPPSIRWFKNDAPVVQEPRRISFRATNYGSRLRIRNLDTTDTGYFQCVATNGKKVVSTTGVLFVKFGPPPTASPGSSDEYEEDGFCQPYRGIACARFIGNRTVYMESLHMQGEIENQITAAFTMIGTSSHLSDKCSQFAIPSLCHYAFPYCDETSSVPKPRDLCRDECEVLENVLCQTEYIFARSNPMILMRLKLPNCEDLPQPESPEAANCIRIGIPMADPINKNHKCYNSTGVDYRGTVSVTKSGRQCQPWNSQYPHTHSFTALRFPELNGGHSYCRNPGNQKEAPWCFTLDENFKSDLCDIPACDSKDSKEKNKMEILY
Sequence of human ROR1 with the glutamic acid at position 138 replaced with the murine lysine (Q01973 30-406 E138K limits assumed): as the sequence (Q01973 30-406 I111N limits assumed) above, with N82I, E109K counted along it

B1: D10 mouse anti-ROR1 mAb (antibody, V domains shown)
VH: QVQLKESGPGLVAPSQTLSITCTVSGFSLTSYGVHWVRQPPGKGLEWLGVIWAGGFTNYNSALKSRLSISKDNSKSQVLLKMTSLQTDDTAMYYCARRGSSYSMDYWGQGTSVTVSS
VL: EIVLSQSPAITAASLGQKVTITCSASSNVSYIHWYQQRSGTSPRPWIYEISKLASGVPVRFSGSGSGTSYSLTISSMEAEDAAIYYCQQWNYPLITFGSGTKLEIQ
notes: also called D10 mAb; anti-ROR1 antibody D10
A word on the Kd: it is the free concentration of one partner at which half of the binding sites on the other are occupied at equilibrium, for simple one-to-one binding. A lower Kd goes with a tighter complex. In the case of B1, the binding result (with murine ROR1; in test [2]) was “no binding” throughout. Moreover, binding with human ROR1 [1] was put at a Kd of 40 nM.

B2: G3 mouse anti-ROR1 mAb (antibody, V domains shown)
VH: QVQLQQPGAELVKPGTSVKLSCKASGYNFTNYWINWVKLRPGQGLEWIGEIYPGSGSTNYNEKFKSKATLTADTSSSTAYMQLSSLASEDSALYYCARDGNYYAMDYWGQGTSVTVSS
VL: DIQMTQTTSSLSASLGDRVTITCRASQDINNYLNWYQQKPDGTVKLLIYYTSALHSGVPSRFSGSGSGTDYSLTISNLEQEDIATYFCQQGNTLPPYTFGGGTKLEIK
For B2, in the test with human ROR1 [3], the binding result is reported as “binds”.

B3: F2 mouse anti-ROR1 mAb (antibody, V domains shown)
VH: EVQLQQSGPELEKPGASVKISCKASGFAFTGYNMNWVKQTNGKSLEWIGSIDPYYGGSTYNQKFKDKATLTVDKSSSTAYMQLKSLTSDDSAVYYCARSPGGDYAMDYWGQGTSVTVSS
VL: DIKMTQSPSSMYASVGERVTITCKASQGINSYSGWFQQKPGKSPKTLIYRGNRLVDGVPSRFSGSGSGQDYSLTISSLEYEDMGIYYCLQYDEFPYTFGGGTKLEIK
As to B3, the binding result with human ROR1 [4] is “binds”.

B4: G6 mouse anti-ROR1 mAb (antibody, V domains shown)
VH: B3 VH
VL: B3 VL
Regarding B4, the binding result with human ROR1 [4] is on record as “binds”.

B5: H10 mouse anti-ROR1 mAb (antibody, V domains shown)
VH: EVKLVESGGGLVKPGGSLKLSCAASGFTFSSYAMSWVRQTPEKRLEWVASISTGASAYFPDSVKGRFTISRDNARNILYLQMSSLRSEDTAMYYCARITTSTWYFDVWGAGTTVTVSS
VL: B3 VL with V15L, G28D, S33L, G34S, G51A
As to B5, the binding result in the test with human ROR1 [3] is “binds”.

B6: F12 mouse anti-ROR1 mAb (antibody, V domains shown)
VH: B3 VH
VL: B3 VL
As for B6, the binding result with human ROR1 [4] is “binds”.

B7: G11 mouse anti-ROR1 mAb (antibody, V domains shown)
VH: B5 VH
VL: B3 VL with V15L, G28D, S33L, G34S, G51A
With B7, the binding result with human ROR1 [3] is “binds”.

B8: 4A5 mouse anti-ROR1 mAb (antibody, V domains shown)
VH: EVKLVESGGGLVKPGGSLKLSCAASGFTFSSYAMSWVRQIPEKRLEWVASISRGGTTYYPDSVKGRFTISRDNVRNILYLQMSSLRSEDTAMYYCGRYDYDGYYAMDYWGQGTSVTVSS
VL: B3 VL with V15L, Q27P, G28D, S33L, G34S, G51A, S65G, S76N, I106M
notes: also called 4A5 mAb; anti-ROR1 antibody 4A5
B8: the binding result (with murine ROR1; in test [6]) was “no binding” throughout. Also, the affinity with human ROR1 [5], expressed as Kd, was 4 nM.
